Data published in doi:10.1101/2023.06.03.543554 (bioRxiv, 2023).

Biological target: T1, human G-protein coupled receptor 1 (GPR1), FLAG-BRIL fusion construct for cryo-EM (human, UniProt P46091 1-355)
T1 sequence: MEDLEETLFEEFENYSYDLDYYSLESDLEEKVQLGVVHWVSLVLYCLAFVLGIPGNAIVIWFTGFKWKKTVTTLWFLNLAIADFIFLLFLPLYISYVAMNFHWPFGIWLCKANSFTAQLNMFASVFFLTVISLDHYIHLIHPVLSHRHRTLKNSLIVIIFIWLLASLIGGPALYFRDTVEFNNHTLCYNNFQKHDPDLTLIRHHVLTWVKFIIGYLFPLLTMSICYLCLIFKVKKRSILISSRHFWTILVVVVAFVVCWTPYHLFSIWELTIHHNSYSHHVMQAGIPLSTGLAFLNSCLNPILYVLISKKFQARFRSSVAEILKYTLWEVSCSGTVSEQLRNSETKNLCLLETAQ
Test: cryo-EM structure

B1: full-length chemerin (21-157) (ligand)
chain: ELTEAQRRGLQVALEEFHKHPPVQWAFQETSVESAVDTPFPAGIFVRLEFKLQQTSCRKRDWKKPECKVRPNGRKRKCLACIKLGSEDKVLGRLVHCPIETQVLREAEEHQETQCLRVQRAGEDPHSFYFPGQFAFS
binding result: binds
